According to patent US20050089938A1, “Use of peptide fragments of the calcium channel a-1 subunit, optionally comprising mutations, for screening molecules of therapeutic interest” (priority 2001, published 2005):

Experiments:
Cav2.1 channel = target: T1, Cav2.1 channel (Oryctolagus cuniculus, UniProt P27884); test: Inactivation kinetics of the Cav2.1 channel expressed in Xenopus oocytes, two-electrode voltage-clamp Ba2+ currents; format: cell-based, rabbit
T1 construct: expressed in transfected cells; host or cells: Xenopus laevis oocytes (cRNA injection)
Description: Xenopus oocytes are removed at Stages V and VI from ovaries of Xenopus laevis frogs from South Africa and maintained in standard saline solution (Barth's medium). The cells are treated with collagenase type IA (2 mg/ml) for two hours and the follicular membranes are eliminated manually. The oocytes are maintained in DNOM medium (defined nutrient oocyte medium) for 2 days before injection of cRNA coding for the Cav2.1 channel. The injection of this cRNA coding for the wild-type or mutated channel is carried out at a concentration of 0.3 μg/μl. In the case of coinjection of other cRNAs (for example: CD8-III-IV, III-IV, etc.), these cRNAs are injected at a concentration of 0.1 μg/μl. The injections of III-IV peptide are carried out at a final intracellular concentration of 10 μM. […] Following the cRNA injections, the cells are kept at 16° C. in DNOM medium for a minimum of 4-5 days before continuing with the electrophysiological recordings.
We applied the two-electrode voltage-clamp technique for the recordings of Ba^2+ currents (the Ba^2+ is more permeable than the Ca^2+ through the high-threshold calcium channels and facilitates our analyses). The recordings are carried out with a GeneClamp amplifier from Axon Instruments (Foster City, Calif.). […] The data are analyzed with the pCLAMP software suite version 6.03 (Axon Instruments). […]

[1] = system: high threshold calcium channels; test: High-threshold calcium current after expression of the I-II loop in bovine chromaffin cells; format: cell-based; details: bovine chromaffin cells transfected with I-II loop coupled to CD8 transmembrane segment and GFP
Source text: (§1) The expression of the I-II loop of the Cav2.1 channel is induced following a cell transfection method (thanks to a transfection agent: lipofectamine, fugene etc.). In order to have the ability to bind the endogenous β sub-units to these cells, we have noted that the ability of this I-II sequence to reduce the expression at the plasma membrane of the endogenous high-threshold calcium channels is facilitated by its coupling to a transmembrane segment. The Inventors have used for their experiments the transmembrane segment of the α chain of the human CD8 receptor, coupled to the amino-terminal part of the I-II loop. In order to facilitate the detection of the transfected cells, the carboxy-terminal part of the I-II loop was coupled to GFP protein (Green Fluorescent Protein) which has the property of green fluorescence (easily detectable in fluorescence microscopy). FIG. 1A illustrates the construction used for these experiments. FIG. 1B illustrates the amino-acid sequence of the transmembrane sequence of the α chain of the CD8 receptor.

III-IV loop of Cav2.1 = target: T2, III-IV loop of Cav2.1 (Oryctolagus cuniculus, UniProt P27884); test: Binding of 35S-methionine labelled in vitro translated I-II loop to GST-III-IV fusion protein; design: species or system rabbit; details: 35S-methionine labelled I-II loop, absence of β sub-unit
T2 construct: This III-IV loop has been expressed and purified as a GST (Glutathione-S-Tranferase) fusion protein; made in house
Source text: FIG. 2: Binding of the I-II loop of Cav2.1 to different intracellular loops. […] This III-IV loop has been expressed and purified as a GST (Glutathione-S-Tranferase) fusion protein. The I-II protein of the channel has been translated in vitro and labelled by a radioactive amino acid (^35S-methionine) in order to monitor its binding to the GST-III-IV fusion protein.
These two amino acids are therefore indispensable to the binding of the I-II loop to the III-IV loop in the absence of the β sub-unit of the calcium channel.

[2] = system: high threshold calcium channels; test: High-threshold calcium current after expression of the I-II loop in rat cerebellum granular cells; format: cell-based; details: rat cerebellum granular cells transfected with I-II loop coupled to CD8 transmembrane segment and GFP
Source text: as §1

T1 sequence (P27884 whole entry): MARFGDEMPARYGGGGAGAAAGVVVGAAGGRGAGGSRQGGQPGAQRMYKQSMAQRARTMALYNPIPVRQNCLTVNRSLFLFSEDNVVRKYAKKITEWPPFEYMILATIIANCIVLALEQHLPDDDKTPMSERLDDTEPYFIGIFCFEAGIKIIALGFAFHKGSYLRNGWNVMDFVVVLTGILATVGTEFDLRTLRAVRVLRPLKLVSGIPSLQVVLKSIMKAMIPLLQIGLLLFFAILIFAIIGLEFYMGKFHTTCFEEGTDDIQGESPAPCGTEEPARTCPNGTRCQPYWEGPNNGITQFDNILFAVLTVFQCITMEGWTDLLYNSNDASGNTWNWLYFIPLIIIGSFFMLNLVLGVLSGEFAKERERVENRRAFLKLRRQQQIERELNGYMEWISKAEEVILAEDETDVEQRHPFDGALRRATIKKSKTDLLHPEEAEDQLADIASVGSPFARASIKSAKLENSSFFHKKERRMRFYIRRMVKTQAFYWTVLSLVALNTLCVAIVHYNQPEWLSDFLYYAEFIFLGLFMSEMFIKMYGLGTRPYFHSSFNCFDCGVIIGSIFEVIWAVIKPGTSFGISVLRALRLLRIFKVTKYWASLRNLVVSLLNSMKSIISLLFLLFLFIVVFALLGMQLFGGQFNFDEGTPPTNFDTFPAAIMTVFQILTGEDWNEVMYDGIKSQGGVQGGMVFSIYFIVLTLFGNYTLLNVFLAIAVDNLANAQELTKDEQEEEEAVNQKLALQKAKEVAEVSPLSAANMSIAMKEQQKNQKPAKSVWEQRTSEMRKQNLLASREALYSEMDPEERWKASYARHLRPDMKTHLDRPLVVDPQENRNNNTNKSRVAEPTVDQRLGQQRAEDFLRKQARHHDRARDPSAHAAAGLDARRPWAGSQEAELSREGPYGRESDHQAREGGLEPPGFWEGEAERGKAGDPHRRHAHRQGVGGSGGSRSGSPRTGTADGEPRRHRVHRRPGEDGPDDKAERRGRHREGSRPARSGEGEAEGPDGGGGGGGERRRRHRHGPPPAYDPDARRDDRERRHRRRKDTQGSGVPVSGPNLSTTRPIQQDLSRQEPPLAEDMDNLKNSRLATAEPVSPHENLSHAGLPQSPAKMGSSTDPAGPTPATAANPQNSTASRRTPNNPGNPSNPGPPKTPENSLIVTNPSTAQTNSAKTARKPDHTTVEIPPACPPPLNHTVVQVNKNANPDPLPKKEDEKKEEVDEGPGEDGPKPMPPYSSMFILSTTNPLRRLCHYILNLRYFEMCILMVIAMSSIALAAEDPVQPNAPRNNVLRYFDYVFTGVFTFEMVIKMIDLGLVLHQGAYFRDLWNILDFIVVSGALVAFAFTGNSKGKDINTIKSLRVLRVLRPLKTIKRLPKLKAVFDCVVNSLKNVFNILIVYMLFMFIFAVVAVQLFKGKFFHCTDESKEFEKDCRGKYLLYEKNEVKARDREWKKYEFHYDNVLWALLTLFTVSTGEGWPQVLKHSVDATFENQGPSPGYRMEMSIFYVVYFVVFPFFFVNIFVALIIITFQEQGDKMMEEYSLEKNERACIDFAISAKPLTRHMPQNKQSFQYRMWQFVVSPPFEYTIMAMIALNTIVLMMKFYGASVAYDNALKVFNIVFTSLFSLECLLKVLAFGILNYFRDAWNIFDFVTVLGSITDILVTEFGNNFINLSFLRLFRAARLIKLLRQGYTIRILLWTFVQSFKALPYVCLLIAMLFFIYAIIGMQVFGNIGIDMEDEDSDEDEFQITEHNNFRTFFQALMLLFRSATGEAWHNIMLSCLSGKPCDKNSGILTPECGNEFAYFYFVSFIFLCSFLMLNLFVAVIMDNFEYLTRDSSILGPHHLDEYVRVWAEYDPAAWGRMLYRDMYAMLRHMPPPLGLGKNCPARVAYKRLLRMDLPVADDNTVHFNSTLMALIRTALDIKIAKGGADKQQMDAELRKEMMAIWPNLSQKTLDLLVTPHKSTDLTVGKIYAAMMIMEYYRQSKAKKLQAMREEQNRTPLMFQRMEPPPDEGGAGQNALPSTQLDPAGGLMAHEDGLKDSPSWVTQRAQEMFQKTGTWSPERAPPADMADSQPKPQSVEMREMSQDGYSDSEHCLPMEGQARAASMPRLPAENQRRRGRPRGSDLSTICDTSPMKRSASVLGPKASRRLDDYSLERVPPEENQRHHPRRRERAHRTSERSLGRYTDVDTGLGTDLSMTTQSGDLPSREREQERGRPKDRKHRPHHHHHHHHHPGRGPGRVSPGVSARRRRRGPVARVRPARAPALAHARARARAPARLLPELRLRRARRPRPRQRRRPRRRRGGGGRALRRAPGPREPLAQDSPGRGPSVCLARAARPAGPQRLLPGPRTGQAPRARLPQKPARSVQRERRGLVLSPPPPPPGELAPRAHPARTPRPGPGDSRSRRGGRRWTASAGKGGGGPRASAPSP
T2 sequence (P27884 1521-1575): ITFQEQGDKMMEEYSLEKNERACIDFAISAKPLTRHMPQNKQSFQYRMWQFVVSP

III-IV loop: III-IV loop of Cav2.1 expressed coupled in amino-terminal position with the α chain of the human CD8 receptor
effect on inactivation kinetics of the Cav2.1 channel (Cav2.1 channel; III-IV loop associated with the plasma membrane via amino-terminal coupling to α chain of human CD8 receptor, cRNA coinjection): accelerates the inactivation kinetics

peptide representing the 40 carboxy-terminal amino acids of the III-IV loop: peptide representing the 40 carboxy-terminal amino acids of the III-IV loop of Cav2.1 (LEKNERACIDFAISAKPLTRHMPQNKQSFQYRMWQFVVSP)
effect on inactivation kinetics of the Cav2.1 channel (Cav2.1 channel; peptide free in the cytoplasm, injected, final intracellular concentration 10 μM): acceleration is similar

B1: I-II loop of the Cav2.1 sub-unit: I-II loop of the Cav2.1 calcium channel sub-unit; in cells coupled to CD8 transmembrane segment and GFP (protein, listed as Oryctolagus cuniculus)
chain: SGEFAKERERVENRRAFLKLRRQQQIERELNGYMEWISKAEEVILAEDETDVEQRHPFDGALRRATIKKSKTDLLHPEEAEDQLADIASVGSPFARASIKSAKLENSSFFHKKERRMRFYIRRMVKTQ
reduction of the high-threshold calcium current [1]: more than 50% | binding to the GST-III-IV fusion protein (III-IV loop of Cav2.1): binding of I-II is evident | reduction of the high-threshold calcium current [2]: more than 50%
